Source: patent US20100285451A1

Molecular target: Somatostatin 2 receptor-eYFP-α fusion (E. coli)
Assay: cell-based or functional assay

EC50, arrestin assay (β-galactosidase complementation of β-arrestin-ω + GPCR-eYFP-α): 3 nM
EC50, internalization assay (β-galactosidase complementation of FYVE-ω + GPCR-eYFP-α): 7 nM
fold induction, internalization assay: 3 fold
Substance: somatostatin-14 (from UniProt P61278 103-116) (peptide)
